Laboratory results reported in article PMC5482063.

Columns and labels:
[1] = molecular target: farnesylated Cryptochrome interacting basic helix-loop-helix 1 (CIB1-CAAX) (UniProt Q8GY61); assay: light-induced membrane recruitment assay (TIRF microscopy); living COS-7 or MC3T3-E1 cells co-expressing the Cry2 construct and CIB-CAAX; illumination limited to a 5 μm-diameter circle (440 nm); 37 °C
[2] = molecular target: farnesylated Cryptochrome interacting basic helix-loop-helix 1 (CIB1-CAAX) (UniProt Q8GY61); assay: light-induced membrane recruitment assay (TIRF microscopy); living COS-7 cells co-expressing the Cry2 construct and CIB1-CAAX at the plasma membrane; whole-cell blue light (440 nm, 50 ms pulses at 10 s intervals); fluorescence after ten pulses normalised to that before illumination; 37 °C
[3] = molecular target: mCherry-optoPlexin (chimera of Cry2 at the amino terminus, mCherry, and the intracellular domain of Plexin-B1 at the C terminus) (not stated | mouse) (UniProt Q96524); assay: membrane co-recruitment assay (TIRF microscopy); living COS-7 cells co-expressing mVenus-RhoGEF, the mCherry-tagged Cry2 construct and CIB-CAAX; whole-cell blue light; increase of the RhoGEF's fluorescence relative to that of optoPlexin (relative co-recruitment); only cells with at least 30% increase in optoPlexin signal; also with Erlotinib

Chain of UniProt Q8GY61 (Q8GY61 whole entry, the tested form may be a part): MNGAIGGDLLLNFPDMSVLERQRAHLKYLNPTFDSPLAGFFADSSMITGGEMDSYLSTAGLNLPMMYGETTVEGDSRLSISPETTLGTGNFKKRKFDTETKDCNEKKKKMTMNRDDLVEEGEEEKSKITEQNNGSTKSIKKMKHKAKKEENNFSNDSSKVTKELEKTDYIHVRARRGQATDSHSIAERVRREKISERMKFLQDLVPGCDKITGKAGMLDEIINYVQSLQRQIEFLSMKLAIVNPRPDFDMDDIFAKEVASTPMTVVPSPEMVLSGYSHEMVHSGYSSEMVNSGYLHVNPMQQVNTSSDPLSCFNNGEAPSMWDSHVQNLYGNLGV

fold increase of TIRF fluorescence intensity (membrane recruitment) [1]	fold increase of TIRF fluorescence intensity (membrane recruitment) [2]	relative co-recruitment (increase in fluorescence relative to that of optoPlexin) [3]	Substance
4 fold	2 fold		mCherry-optoPlexin (chimera of Cry2 at the amino terminus, mCherry, and the intracellular domain of Plexin-B1 at the C terminus) (from UniProt Q96524 1-612)
		60%	mVenus-Leukemia-associated RhoGEF (mVenus-LARG) (from UniProt Q9NZN5 1-1544) (natural protein)
		26%	mVenus-PDZ-RhoGEF (mVenus-PRG) (from UniProt O15085 1-1522) (natural protein)
